The values that follow are results of earlier work, collected in PMC10188253 (Molecular pharmaceutics, 2022).

Where two headings read alike, the source gives them in different places.

This series has as its system B16/F10 melanoma. To be noted: ref [25].

As for ^64Cu-CB-TE1A1P-PEG4-LLP2A, the B16/F10 melanoma uptake is given as 15.1 ± 1.0 % ID/g (2 h post-injection) and 16.9 ± 2.2 % ID/g (4 h post-injection). The “VLA-4-specific uptake in normal lung, bone and spleen” value (2 h post-injection) is listed as 4.6–18.1 % ID/g.
